# Test results taken from the emibetuzumab library of Makowski et al. (2022).
# B1: VH:VL chains; a variant is named by its letters at X, in order (parent)
# chain 1: QVQLVQSGAEVKKPGASVKVSCKASGYTFTDYXMHWVRQAPGQGLEWMGXVNPNXXXTTYNQKFEGRVTMTTDTSTSTAYMELRSLRSDDTAVYYCARXNXLDXWGQGTTVTVSS
# chain 2: DIQMTQSPSSLSASVGDRVTITCSVSSSVSSIYLHWYQQKPGKAPKLLIYSTSNLASGVPSRFSGSGSGTDFTLTISSLQPEDFATYYCQVYSGYPLTFGGGTKVEIK
# Variants of: B1
# Experiment: yeast display scFab, FACS + sequencing
# How it was run: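 Heavy-chain CDR mutant scFab yeast surface library, FACS-sorted after labelling with biotinylated ovalbumin (260 μg/mL in PBSB, 3 h, room temperature) or soluble membrane proteins (130 μg/mL, 20 min on ice), plus anti-Myc. Gates collected the top 25% and bottom 10% of binders, and samples from two replicates were deep sequenced. Non-specific binding call: a sequence was positive if found in ≥3 of 4 positive samples (membrane protein and ovalbumin pooled) and no negatives, and negative by the converse rule.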
row,Variant,non-specific binding call
1,YEKGGDGA,no binding
2,YEKGGDGV,no binding
3,VEKGGDGV,no binding
4,YEKGGDVD,no binding
5,VEKGGDVS,no binding
6,YEKGGDVY,no binding
7,VEKGGDWD,no binding
8,VEKGGSGD,no binding
9,VEKGGSGV,no binding
10,DEKGGSSA,no binding
11,SEKGGSSA,no binding
12,FEKGSDVA,no binding
13,SEKKADWA,no binding
14,DEKKADWA,no binding
15,SEKKDYSA,no binding
16,VEKKDYSA,no binding
17,SEKKSAGA,no binding
18,VEKTGVGA,binds
19,VERASAVV,no binding
20,SEREADWF,no binding
21,VEREADWF,no binding
22,AEREADWV,no binding

row,Variant,non-specific binding call
1,YERESAAV,no binding
2,VERGGDSY,no binding
3,VERGGFGS,binds
4,VERGTYGV,no binding
5,VERKGYLA,binds
6,FERRAFGY,binds
7,AERRDDGA,no binding
8,SERRDVLY,binds
9,YERRDVLY,binds
10,AERRGSWS,no binding
11,VERRGSWS,no binding
12,YERRGSWS,no binding
13,YERRNDVV,no binding
14,YERRSSAF,no binding
15,DERRSSAF,no binding
16,SERRSSAF,no binding
17,FERTSALF,binds
18,FERTSVWF chain 1 L45F,binds
19,YERTTDLS,binds
20,AETAGAAA,no binding
21,VETEGAGA,no binding
22,VETEGAVY,no binding

row,Variant,non-specific binding call
1,VETEGDAV,no binding
2,VETEGDGF,no binding
3,VETEGDGV,no binding
4,VETEGDVA,no binding
5,DETEGDVF,no binding
6,YETEGDVF,no binding
7,VETEGDVY,no binding
8,VETEGDWD,no binding
9,VETEGDWY,no binding
10,VETEGSGV,no binding
11,VETEGSSV,no binding
12,YETETALY,no binding
13,YETGAAAA,no binding
14,SETGAALD,no binding
15,SETGADVA,no binding
16,AETGASLS,no binding
17,VETGGAAA,no binding
18,SETGGAGD,no binding
19,VETGGAVA,no binding
20,SETGGDVA,no binding
21,DETGGDWF,no binding
22,SETGGDWV,no binding

row,Variant,non-specific binding call
1,SETGGFVV,no binding
2,DETGGSSD,no binding
3,FETGGYVY,no binding
4,VETGNAVY,no binding
5,VETGNDAV,no binding
6,VETGNDGA,no binding
7,VETGNDGV,no binding
8,VETGNDLV,no binding
9,VETGNDVA,no binding
10,VETGNSGA,no binding
11,VETGNSLV,no binding
12,VETGNSSA,no binding
13,YETGNVWF,no binding
14,SETGNVWF,no binding
15,DETGNVWF,no binding
16,AETKGAAA,no binding
17,AETKGALD,no binding
18,AETKGAVA,no binding
19,AETKGDGA,no binding
20,AETKGDGV,no binding
21,SETKGDVY,no binding
22,AETKGDVY,no binding

row,Variant,non-specific binding call
1,SETKGDWA,no binding
2,AETKGDWD,no binding
3,DETKGDWD,no binding
4,VETKGDWD,no binding
5,YETKGDWD,no binding
6,SETKGDWD,no binding
7,AETKGDWV,no binding
8,AETKGFAV,no binding
9,AETKGSLA,no binding
10,DETRSAGA,no binding
11,VETRSDVA,no binding
12,VETRSSSV,no binding
13,SETTDAGD,no binding
14,SETTDAGV,no binding
15,SETTDDAV,no binding
16,SETTDDVA,no binding
17,SETTDSLD,no binding
18,SETTDSSA,no binding
19,YETTDSWV,no binding
20,VETTDSWV,no binding
21,AETTDSWV,no binding
